Test results from patent publication US20250090583A1.

Assays:
[1] = target: MART-1 peptide … (ELA) presented by HLA-A2 on peptide-pulsed T2 cells; assay: cell-based or functional assay
[2] = target: CD3 of the TCR-CD3 complex on human T cells (human) (UniProt P07766); assay: cell-based or functional assay

NFAT-GFP in Jurkat cells co-cultured overnight with ELA-pulsed T2 cells, against WT Jkt-DMF5 [1] [% reduction] | NFAT-GFP in Jkt-DMF5FATADALN cells co-cultured with Raji (CD19+) cells and blinatumomab, against WT Jkt-DMF5 [2] [% reduction] | NFAT-GFP in Jkt-DMF5GGGSGSG cells co-cultured with Raji (CD19+) cells and blinatumomab, against WT Jkt-DMF5 [2] [% reduction] | Substance
50 | – | – | DMF5 TCR with alpha chain connecting peptide motif mutated to GGGSGSG
– | < 80 | < 80 | blinatumomab (bispecific antibody)
